From patent US20160368980A1, “INHIBITION OF GRANULOCYTE COLONY STIMULATING FACTOR IN THE TREATMENT OF CANCER” (STC.UNM, priority 2014, published 2016)

Experiments:
Format in all cases: cell-based, human
[1] = system: MKN-45 and Caco-2 carcinoma cells; assay: G-CSF induced proliferation (CyQuant) with ERK1/2 or RSK inhibitors; details: 10 μM inhibitor, 30 min before recombinant G-CSF
Procedure: Proliferation: MKN-45, AGS, Caco-2 and DLD1 cells (2500 per well) were added to wells of a 96 well plate and incubated with 5-25 ng/ml of recombinant G-CSF (eBioscience) or conditioned media from MF for 48 hours. Conditioned media included a mixture of 50% media from cultured myofibroblasts and 50% fresh media for nutrients. Media from MF was taken when cells were 80% or greater confluent before passage (from approximately 1×10^6 cells). Proliferation was measured using CyQuant dye for DNA content (Life Technologies). […] Samples were read on a Tecan fluorescent plate reader (Mannedorf, Switzerland).
However, most of the studies have been performed in myeloid cells or neutrophils. Thus, we sought to examine G-CSFR signaling in MKN-45 and Caco-2 cells. […] Cells were lysed and protein levels normalized. […] A 5-fold increase in phosphorylation was found in MKN-45 and a 10-fold increase in phosphorylation was found in Caco-2 cells (FIGS. 6A and B). […] ERK1/2 or RSK inhibitors were added to some wells of cells before addition of G-CSF, and proliferation examined by CyQuant proliferation assay for DNA content.

MKN-45 and Caco-2 cells [2] = assay: Aldefluor / CD44 staining of stem-like population by flow cytometry; details: for effect on G-CSF-induced stem marker expressing cell expansion (aldehyde dehydrogenase high, CD44): treatment with ERK1/2 or RSK inhibitor before G-CSF
Procedure: (§1) Flow Cytometry: Single-and multi-color immunostaining was performed according to standard surface and intracellular FACS staining Biolegend protocols (Biolegend, San Diego, Calif.). Anti-Ep-cam Alexa-Fluor 488 (Biolegend 9c4) was used for identification of epithelial cells. The purity of MF was analyzed by staining for CD90-PE (Biolegend Thyl) and α-smooth actin-FITC (R&D Systems 1C14206) for flow cytometry compared to isotype controls. Anti-G-CSFR-PE (clone 1 mm 741 Biolegend) and G-CSF-FITC (clone 85FSCSF eBioscience) were used for the analysis of G-CSFR surface expression and intracellular G-CSF after 4 hour exposure to Brefeldin A compared to isotype controls. Anti-proliferating cell nuclear antigen (PCNA) (clone PCNA01, Biolegend) was used as a proliferation marker. Cancer stem-like populations in carcinoma cell lines were examined by staining with Aldefluor (Stem Cell Technologies, Vancouver, BC) and anti-CD44-APC (Biolegend clone BJ18) using the manufacturer's Aldefluor staining protocol compared to isotype control. All samples were analyzed on a Guava easyCyte 8HT flow cytometer (Millipore, Bellerica, Md.), and analyzed using FCS Express software (DeNovo Software, Los Angeles, Calif.).
Therefore, assessment of MKN-45 and Caco-2 cells for a similar population was undertaken. […] Cells were also stained with CD44, since in gastric and colon cancers CD44 has also been shown on cells with stem-like features (Huang et al., 2009; Katsuno et al., 2012; Su et al., 2011b; Takaishi et al., 2009; Wakamatsu et al., 2012). To examine Aldefluor staining, cells were gated on the CD44 positive population. Then, another gate was set using the diethylaminobenzaldehyde (DEAB) inhibitor of aldehyde dehydrogenase as a negative control (FIG. 5A). […] G-CSF treatment expanded this population from 6% to 16% of the cell population (FIGS. 5C). Further, 48 hour treatment of MKN-45 and Caco-2 cells with 10 ng/ml of G-CSF led to an approximately 10% increase in the stem-like Aldefluor^highCD44^+population (FIG. 5D) with both cell types.
In parallel, ERK1/2 and RSK inhibition were also examined for effects on stem-like populations.

MKN-45 and Caco-2 cells [3] = assay: Fluoroblok migration assay (8 micron pores, CFSE-labeled cells); details: 10 ng/ml G-CSF in bottom wells, 4 hours
Procedure: Migration: MKN-45 and Caco-2 cells were stained with carboxyfluorein succinimidyl ester (CFSE) (Life Technologies) and added to the top of Fluoroblok 96 well plates with […]. Serum free media, media with 10% FBS, recombinant G-CSF, or MF supernatants were added to the bottom of the wells. G-CSF neutralizing antibodies (1 μg/ml) were added to some cultures. The fluorescence of migrated cells was measured after 4 hours of incubation at 37° C. on a Tecan plate reader.
Given the ability of G-CSF to mobilize bone marrow derived hematopoietic cells during systemic administration (Held and Gundert-Remy, 2010), we assessed whether it could increase the migratory ability, and therefore the malignant potential, of gastric and colon cancer cells. MKN-45 and Caco-2 were serum starved overnight, fluorescently labeled with CFSE, and plated on FluorBlok™ plates with 8 micron pores and serum free media in the top of the wells. The bottom wells were filled with serum free media, serum free media containing 10 ng/ml of G-CSF or serum containing media (positive control). […] Both cell types migrated through the pores toward serum as a positive control, and at even higher rates toward G-CSF. […]

[4] = system: MKN-45 and AGS gastric carcinoma cells; assay: CyQuant proliferation assay for DNA content, gastric carcinoma cells; details: recombinant G-CSF 5-25 ng/ml, after 4 days, dose dependent
Procedure: (§2) Proliferation: MKN-45, AGS, Caco-2 and DLD1 cells (2500 per well) were added to wells of a 96 well plate and incubated with 5-25 ng/ml of recombinant G-CSF (eBioscience) or conditioned media from MF for 48 hours. Conditioned media included a mixture of 50% media from cultured myofibroblasts and 50% fresh media for nutrients. Media from MF was taken when cells were 80% or greater confluent before passage (from approximately 1×10^6 cells). Proliferation was measured using CyQuant dye for DNA content (Life Technologies). Other samples were incubated with 10 μM ERK activation inhibitor peptide 1 or RSK inhibitor SL0101 (EMD Millipore) for 30 min before addition of recombinant G-CSF. Samples were read on a Tecan fluorescent plate reader (Mannedorf, Switzerland).
(§3) MKN-45 and AGS gastric carcinoma cells and Caco-2 and DLD1 colon carcinoma cells were incubated with increasing doses of recombinant G-CSF (5-25 ng/ml), which were chosen based on reports of serum concentrations in patients (Morstyn et al., 1989). After 4 days (approximately 2 doubling times), proliferation was measured using the CyQuant fluorescent proliferation assay for DNA content. G-CSF treated cells were compared to untreated control cells. […] To further confirm G-CSF induction of cell proliferation, G-CSF treated cells were stained intracellularly for proliferating cell nuclear antigen (PCNA). […]

[5] = system: Caco-2 and DLD1 colon carcinoma cells; assay: CyQuant proliferation assay for DNA content, colon carcinoma cells; details: recombinant G-CSF 5-25 ng/ml, after 4 days, Caco-2 and DLD1, dose dependent
Procedure: as §2, §3

[6] = system: ERK1/2 and RSK1 phosphorylation in MKN-45 cells; assay: Luminex signaling bead array, ERK1/2 and RSK1 phosphorylation, MKN-45; details: recombinant G-CSF 10 ng/ml
Procedure: (§4) Luminex Arrays: G-CSF levels were measured in cell culture supernatants by singleplex fluorescent bead based array (Life Technologies) according to manufacturer's instructions. ERK1/2 and RSK phosphorylation were measured by Milliplex MAPmates phospho-ERK1/2 and RSK arrays (EMD Millipore, Billerica Mass.) according to the manufacturer protocol. All samples were analyzed on a Luminex 200 machine.
(§5) Some studies have shown that G-CSFR signaling induces signaling pathways that lead to cell proliferation (Kamezaki et aL, 2005; Wang et al., 2008). However, most of the studies have been performed in myeloid cells or neutrophils. Thus, we sought to examine G-CSFR signaling in MKN-45 and Caco-2 cells. Cells were pre-incubated with serum free media for 2 hours before treatments and recombinant G-CSF (10 ng/ml) was added to wells in 15 min intervals. Cells were lysed and protein levels normalized. […] A 5-fold increase in phosphorylation was found in MKN-45 and a 10-fold increase in phosphorylation was found in Caco-2 cells (FIGS. 6A and B). […] Since we found phosphorylation of these signaling molecules after G-CSF treatment, we further sought to characterize the role of these pathways in the increased cell proliferation resulting from G-CSF treatment observed in MKN-45 and Caco-2 carcinoma cells shown in FIG. 3. […]

[7] = system: gastric and colon carcinoma cells; assay: Intracellular PCNA staining by flow cytometry; details: G-CSF treated cells, both cell types
Procedure: as §1, with “Cancer stem-like populations in carcinoma cell lines were examined by staining with Aldefluor (Stem Cell Technologies, Vancouver, BC) and anti-CD44-APC (Biolegend clone BJ18) using the manufacturer's Aldefluor staining protocol compared to isotype control.” left out
MKN-45 and AGS gastric carcinoma cells and Caco-2 and DLD1 colon carcinoma cells were incubated with increasing doses of recombinant G-CSF (5-25 ng/ml), which were chosen based on reports of serum concentrations in patients (Morstyn et al., 1989). After 4 days (approximately 2 doubling times), proliferation was measured using the CyQuant fluorescent proliferation assay for DNA content. […]

[8] = system: ERK1/2 and RSK1 phosphorylation in Caco-2 cells; assay: Luminex signaling bead array, ERK1/2 and RSK1 phosphorylation, Caco-2; details: recombinant G-CSF 10 ng/ml
Procedure: as §4, §5

| Molecule | effect on G-CSF induced proliferation [1] | effect on G-CSF-induced stem marker expressing cell expansion (aldehyde dehydrogenase high, CD44) (MKN-45 and Caco-2 cells [2]) | increased migration compared to serum containing media (MKN-45 and Caco-2 cells [3]) [fold] | increased migration compared to serum free media (MKN-45 and Caco-2 cells [3]) [fold] | increase in proliferation compared to untreated cells [4] [fold] | increase in proliferation compared to untreated cells [5] | increase in ERK1/2 and RSK1 phosphorylation [6] [fold] | incubation time of peak ERK1/2 and RSK1 phosphorylation [6] [min] | increase in the stem-like Aldefluor high CD44+ population (MKN-45 and Caco-2 cells [2]; 48 hour treatment, 10 ng/ml G-CSF, MKN-45 and Caco-2 (both cell types)) | stem-like Aldefluor population, share of the cell population after G-CSF treatment (MKN-45 and Caco-2 cells [2]; MKN-45, gated on CD44 positive, untreated 6%) [%] | increase in PCNA staining compared to untreated cells [7] | increase in ERK1/2 and RSK1 phosphorylation [8] [fold] | incubation time of peak ERK1/2 and RSK1 phosphorylation [8] [min] |
| --- | --- | --- | --- | --- | --- | --- | --- | --- | --- | --- | --- | --- | --- |
| CC(=O)O[C@@H]1[C@@H](OC(C)=O)[C@@H](O)[C@H](Oc2c(-c3ccc(O)cc3)oc3cc(O)cc(O)c3c2=O)O[C@H]1C [RSK inhibitor, SL0101, reference compound] | drastically inhibited | completely abrogated | – | – | – | – | – | – | – | – | – | – | – |
| ERK activation inhibitor peptide 1 [ERK1/2 inhibitor, reference compound] | drastically inhibited | completely abrogated | – | – | – | – | – | – | – | – | – | – | – |
| G-CSF: recombinant G-CSF (eBioscience), pro-inflammatory cytokine (protein, UniProt P09920 31-208, looked up) Granulocyte …: VPLVTVSALPPSLPLPRSFLLKSLEQVRKIQASGSVLLEQLCATYKLCHPEELVLLGHSLGIPKASLSGCSSQALQQTQCLSQLHSGLCLYQGLLQALSGISPALAPTLDLLQLDVANFATTIWQQMENLGVAPTVQPTQSAMPAFTSAFQRRAGGVLAISYLQGFLETARLALHHLA | – | – | 1.5 | ≤ 4 | ≤ 2.5 | up to 4.5 fold | 5 | 30 | approximately 10% | 16 | greater than 2 fold | 10 | 30 |
